Columns and labels:
BCL2-mCherry (wild type) = BCL2-mCherry (wild type) (UniProt P10415); assay: single-molecule pull-down and co-IP
BCL2 D103E-mCherry = BCL2 D103E-mCherry (UniProt P10415); assay: single-molecule pull-down and co-IP

| Substance | Kd (BCL2-mCherry (wild type)) | Kd (BCL2 D103E-mCherry) |
| --- | --- | --- |
| BH3 domain of BIM, eGFP-labeled (domain or fragment) | 53.6 nM | 32.1 nM |
| BIMEL, TMD-truncated, eGFP-labeled (domain or fragment) | 27.3 nM |  |
| BIML, TMD-truncated, eGFP-labeled (domain or fragment) | 63.3 nM |  |
| BIMS, TMD-truncated, eGFP-labeled (domain or fragment) | 15.7 nM |  |
